From PMC9482650, “Quantitative fragmentomics allow affinity mapping of interactomes” (Nature Communications, 2022)

B1: ABCC4, O15439 (peptide)
chain: STLTIFETAL
B2: KIR3DL3, Q8N743 (peptide)
chain: PKTPPTDTSV
B3: TJP2, Q9UDY2 (peptide)
chain: QSARYRDTEL

biological target: T1, CNKSR1, Q969H4; assay: holdup assay; set-up: key: below the threshold = too weak to quantify, mostly under pKd 3.1 to 4; conditions: plain residues with an end cap or a label only (N-terminal biotin on a linker: ttds)
T1 sequence (Q969H4 191-295, limits assumed, looked up): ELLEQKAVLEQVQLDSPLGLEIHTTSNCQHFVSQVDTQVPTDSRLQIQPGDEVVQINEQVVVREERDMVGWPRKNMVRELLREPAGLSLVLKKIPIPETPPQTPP

| Binder | pKd |
| --- | --- |
| B1 | below the threshold |
| B2 | below the threshold |
| B3 | below the threshold |

biological target: DLG2_1, Q15700; assay: holdup assay; set-up: key: below the threshold = too weak to quantify, mostly under pKd 3.1 to 4; conditions: plain residues with an end cap or a label only (N-terminal biotin on a linker: ttds)

| Binder | pKd |
| --- | --- |
| B1 | 4.21 |
| B2 | below the threshold |
| B3 | below the threshold |

biological target: DLG5_2, Q8TDM6; assay: holdup assay; set-up: key: below the threshold = too weak to quantify, mostly under pKd 3.1 to 4; conditions: plain residues with an end cap or a label only (N-terminal biotin on a linker: ttds)
Sequence (Q8TDM6 714-800): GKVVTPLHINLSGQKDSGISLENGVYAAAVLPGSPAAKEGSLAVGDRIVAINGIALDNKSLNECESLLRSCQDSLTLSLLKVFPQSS

| Binder | pKd |
| --- | --- |
| B1 | below the threshold |
| B2 | below the threshold |
| B3 | below the threshold |

biological target: IL16_2, Q14005; assay: holdup assay; set-up: key: below the threshold = too weak to quantify, mostly under pKd 3.1 to 4; conditions: plain residues with an end cap or a label only (N-terminal biotin on a linker: ttds)
Sequence (Q14005 350-450): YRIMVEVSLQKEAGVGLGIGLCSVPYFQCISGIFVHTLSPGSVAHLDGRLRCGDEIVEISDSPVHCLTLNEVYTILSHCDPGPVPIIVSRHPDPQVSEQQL

| Binder | pKd |
| --- | --- |
| B1 | below the threshold |
| B2 | below the threshold |
| B3 | below the threshold |

biological target: LMO7, Q8WWI1; assay: holdup assay; set-up: key: below the threshold = too weak to quantify, mostly under pKd 3.1 to 4; conditions: plain residues with an end cap or a label only (N-terminal biotin on a linker: ttds)
Sequence (Q8WWI1 1037-1138): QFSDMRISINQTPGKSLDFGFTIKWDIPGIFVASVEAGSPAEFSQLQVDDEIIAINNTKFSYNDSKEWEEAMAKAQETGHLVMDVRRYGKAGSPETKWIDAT

| Binder | pKd |
| --- | --- |
| B1 | below the threshold |
| B2 | below the threshold |
| B3 | below the threshold |

biological target: MAGI1_4, Q96QZ7; assay: holdup assay; set-up: key: below the threshold = too weak to quantify, mostly under pKd 3.1 to 4; conditions: plain residues with an end cap or a label only (N-terminal biotin on a linker: ttds)
Sequence (Q96QZ7 other isoform, or with tags, fused parts or gaps): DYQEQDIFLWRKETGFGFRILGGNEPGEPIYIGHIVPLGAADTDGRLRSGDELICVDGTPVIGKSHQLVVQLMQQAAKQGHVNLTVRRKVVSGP

| Binder | pKd |
| --- | --- |
| B1 | below the threshold |
| B2 | below the threshold |
| B3 | below the threshold |

biological target: MAGI1_5, Q96QZ7; assay: holdup assay; set-up: key: below the threshold = too weak to quantify, mostly under pKd 3.1 to 4; conditions: plain residues with an end cap or a label only (N-terminal biotin on a linker: ttds)
Sequence (Q96QZ7 986-1098): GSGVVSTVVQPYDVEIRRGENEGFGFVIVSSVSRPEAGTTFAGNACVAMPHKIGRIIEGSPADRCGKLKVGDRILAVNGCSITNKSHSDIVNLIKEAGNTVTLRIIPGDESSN

| Binder | pKd |
| --- | --- |
| B1 | 5.11 |
| B2 | below the threshold |
| B3 | below the threshold |

biological target: MAGI3_4, Q5TCQ9; assay: holdup assay; set-up: key: below the threshold = too weak to quantify, mostly under pKd 3.1 to 4; conditions: plain residues with an end cap or a label only (N-terminal biotin on a linker: ttds)
Sequence (Q5TCQ9 716-815): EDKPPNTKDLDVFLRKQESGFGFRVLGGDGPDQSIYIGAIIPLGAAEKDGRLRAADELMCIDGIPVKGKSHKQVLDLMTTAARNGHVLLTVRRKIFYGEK

| Binder | pKd |
| --- | --- |
| B1 | below the threshold |
| B2 | below the threshold |
| B3 | below the threshold |

biological target: MAGI3_5, Q5TCQ9; assay: holdup assay; set-up: key: below the threshold = too weak to quantify, mostly under pKd 3.1 to 4; conditions: plain residues with an end cap or a label only (N-terminal biotin on a linker: ttds)
Sequence (Q5TCQ9 847-941): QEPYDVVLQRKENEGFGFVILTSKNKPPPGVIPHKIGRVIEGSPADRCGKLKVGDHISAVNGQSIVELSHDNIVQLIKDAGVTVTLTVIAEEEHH

| Binder | pKd |
| --- | --- |
| B1 | 4.39 |
| B2 | below the threshold |
| B3 | below the threshold |

biological target: T2, MLLT4, P55196; assay: holdup assay; set-up: key: below the threshold = too weak to quantify, mostly under pKd 3.1 to 4; conditions: plain residues with an end cap or a label only (N-terminal biotin on a linker: ttds)
T2 sequence (P55196 1002-1103, limits assumed, looked up): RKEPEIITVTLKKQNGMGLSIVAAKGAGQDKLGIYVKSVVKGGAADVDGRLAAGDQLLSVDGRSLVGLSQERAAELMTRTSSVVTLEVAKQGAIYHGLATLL

| Binder | pKd |
| --- | --- |
| B1 | below the threshold |
| B2 | below the threshold |
| B3 | below the threshold |

biological target: T3, MPDZ_11, O75970; assay: holdup assay; set-up: key: below the threshold = too weak to quantify, mostly under pKd 3.1 to 4; conditions: plain residues with an end cap or a label only (N-terminal biotin on a linker: ttds)
T3 sequence (O75970 1720-1817, limits assumed, looked up): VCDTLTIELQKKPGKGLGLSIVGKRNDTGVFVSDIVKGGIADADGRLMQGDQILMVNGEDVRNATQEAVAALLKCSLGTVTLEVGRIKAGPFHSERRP

| Binder | pKd |
| --- | --- |
| B1 | below the threshold |
| B2 | below the threshold |
| B3 | below the threshold |

biological target: T4, MPDZ_3, O75970; assay: holdup assay; set-up: key: below the threshold = too weak to quantify, mostly under pKd 3.1 to 4; conditions: plain residues with an end cap or a label only (N-terminal biotin on a linker: ttds)
T4 sequence (O75970 372-473, limits assumed, looked up): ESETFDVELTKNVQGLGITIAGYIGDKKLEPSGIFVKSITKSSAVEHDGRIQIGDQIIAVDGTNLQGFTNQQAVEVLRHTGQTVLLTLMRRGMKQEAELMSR

| Binder | pKd |
| --- | --- |
| B1 | 4.18 |
| B2 | below the threshold |
| B3 | below the threshold |

biological target: NHERF2_1, Q15599; assay: holdup assay; set-up: key: below the threshold = too weak to quantify, mostly under pKd 3.1 to 4; conditions: plain residues with an end cap or a label only (N-terminal biotin on a linker: ttds)
Sequence (Q15599 9-91): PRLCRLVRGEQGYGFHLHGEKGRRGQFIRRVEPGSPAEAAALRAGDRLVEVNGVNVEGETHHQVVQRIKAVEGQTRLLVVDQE

| Binder | pKd |
| --- | --- |
| B1 | 4.83 |
| B2 | below the threshold |
| B3 | below the threshold |

biological target: T5, PDZD11, Q5EBL8; assay: holdup assay; set-up: key: below the threshold = too weak to quantify, mostly under pKd 3.1 to 4; conditions: plain residues with an end cap or a label only (N-terminal biotin on a linker: ttds)
T5 sequence (Q5EBL8 42-139, limits assumed, looked up): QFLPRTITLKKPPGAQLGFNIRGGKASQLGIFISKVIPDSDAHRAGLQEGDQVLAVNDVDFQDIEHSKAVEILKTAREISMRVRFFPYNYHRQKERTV

| Binder | pKd |
| --- | --- |
| B1 | 4.46 |
| B2 | 4.3 |
| B3 | below the threshold |

biological target: T6, PDZD2_4, O15018; assay: holdup assay; set-up: key: below the threshold = too weak to quantify, mostly under pKd 3.1 to 4; conditions: plain residues with an end cap or a label only (N-terminal biotin on a linker: ttds)
T6 sequence (O15018 723-823, limits assumed, looked up): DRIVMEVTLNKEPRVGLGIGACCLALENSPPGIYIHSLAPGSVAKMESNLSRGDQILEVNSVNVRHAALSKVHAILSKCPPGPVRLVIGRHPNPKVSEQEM

| Binder | pKd |
| --- | --- |
| B1 | below the threshold |
| B2 | below the threshold |
| B3 | below the threshold |

biological target: T7, PDZD4, Q76G19; assay: holdup assay; set-up: key: below the threshold = too weak to quantify, mostly under pKd 3.1 to 4; conditions: plain residues with an end cap or a label only (N-terminal biotin on a linker: ttds)
T7 sequence (Q76G19 125-224, limits assumed, looked up): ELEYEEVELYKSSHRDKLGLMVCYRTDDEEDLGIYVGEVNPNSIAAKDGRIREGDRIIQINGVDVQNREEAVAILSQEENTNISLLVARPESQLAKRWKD

| Binder | pKd |
| --- | --- |
| B1 | 4.08 |
| B2 | 4.14 |
| B3 | below the threshold |

biological target: PREX1_1, Q8TCU6; assay: holdup assay; set-up: key: below the threshold = too weak to quantify, mostly under pKd 3.1 to 4; conditions: plain residues with an end cap or a label only (N-terminal biotin on a linker: ttds)
Sequence (Q8TCU6 608-718): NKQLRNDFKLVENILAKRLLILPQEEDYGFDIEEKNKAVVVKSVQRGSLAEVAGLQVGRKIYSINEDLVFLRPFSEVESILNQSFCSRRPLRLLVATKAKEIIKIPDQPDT

| Binder | pKd |
| --- | --- |
| B1 | below the threshold |
| B2 | below the threshold |
| B3 | below the threshold |

biological target: T8, PREX2_2, Q70Z35; assay: holdup assay; set-up: key: below the threshold = too weak to quantify, mostly under pKd 3.1 to 4; conditions: plain residues with an end cap or a label only (N-terminal biotin on a linker: ttds)
T8 sequence (Q70Z35 672-764, limits assumed, looked up): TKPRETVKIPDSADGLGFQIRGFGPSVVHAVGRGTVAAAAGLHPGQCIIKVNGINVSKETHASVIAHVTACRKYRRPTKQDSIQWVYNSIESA

| Binder | pKd |
| --- | --- |
| B1 | below the threshold |
| B2 | below the threshold |
| B3 | below the threshold |

biological target: RIMS2, Q9UQ26; assay: holdup assay; set-up: key: below the threshold = too weak to quantify, mostly under pKd 3.1 to 4; conditions: plain residues with an end cap or a label only (N-terminal biotin on a linker: ttds)
Sequence (Q9UQ26 637-758): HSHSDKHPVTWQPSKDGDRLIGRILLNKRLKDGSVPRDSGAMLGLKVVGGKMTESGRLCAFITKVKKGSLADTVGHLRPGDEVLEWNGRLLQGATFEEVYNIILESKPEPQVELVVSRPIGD

| Binder | pKd |
| --- | --- |
| B1 | below the threshold |
| B2 | below the threshold |
| B3 | below the threshold |

biological target: T9, SHROOM3, Q8TF72; assay: holdup assay; set-up: key: below the threshold = too weak to quantify, mostly under pKd 3.1 to 4; conditions: plain residues with an end cap or a label only (N-terminal biotin on a linker: ttds)
T9 sequence (Q8TF72 20-120, limits assumed, looked up): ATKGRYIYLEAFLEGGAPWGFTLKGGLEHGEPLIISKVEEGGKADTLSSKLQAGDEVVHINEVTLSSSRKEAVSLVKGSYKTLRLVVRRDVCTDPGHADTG

| Binder | pKd |
| --- | --- |
| B1 | below the threshold |
| B2 | below the threshold |
| B3 | below the threshold |

biological target: T10, SYNPO2L, Q9H987; assay: holdup assay; set-up: key: below the threshold = too weak to quantify, mostly under pKd 3.1 to 4; conditions: plain residues with an end cap or a label only (N-terminal biotin on a linker: ttds)
T10 sequence (Q9H987 1-98, limits assumed, looked up): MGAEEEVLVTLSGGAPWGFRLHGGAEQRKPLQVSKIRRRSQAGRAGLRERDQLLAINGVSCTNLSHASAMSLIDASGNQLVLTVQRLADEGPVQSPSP

| Binder | pKd |
| --- | --- |
| B1 | below the threshold |
| B2 | below the threshold |
| B3 | below the threshold |

biological target: T11, TJP3_2, O95049; assay: holdup assay; set-up: key: below the threshold = too weak to quantify, mostly under pKd 3.1 to 4; conditions: plain residues with an end cap or a label only (N-terminal biotin on a linker: ttds)
T11 sequence (O95049 190-282, limits assumed, looked up): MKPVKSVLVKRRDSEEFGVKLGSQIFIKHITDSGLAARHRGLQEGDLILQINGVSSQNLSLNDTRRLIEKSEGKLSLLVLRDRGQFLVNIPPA

| Binder | pKd |
| --- | --- |
| B1 | below the threshold |
| B2 | below the threshold |
| B3 | below the threshold |

biological target: T12, USH1C_1, Q9Y6N9; assay: holdup assay; set-up: key: below the threshold = too weak to quantify, mostly under pKd 3.1 to 4; conditions: plain residues with an end cap or a label only (N-terminal biotin on a linker: ttds)
T12 sequence (Q9Y6N9 82-179, limits assumed, looked up): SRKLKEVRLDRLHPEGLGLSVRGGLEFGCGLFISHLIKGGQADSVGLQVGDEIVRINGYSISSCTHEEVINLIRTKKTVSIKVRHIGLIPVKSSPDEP

| Binder | pKd |
| --- | --- |
| B1 | 4.33 |
| B2 | below the threshold |
| B3 | below the threshold |

biological target: T13, USH1C_3, Q9Y6N9; assay: holdup assay; set-up: key: below the threshold = too weak to quantify, mostly under pKd 3.1 to 4; conditions: plain residues with an end cap or a label only (N-terminal biotin on a linker: ttds)
T13 sequence (Q9Y6N9 447-547, limits assumed, looked up): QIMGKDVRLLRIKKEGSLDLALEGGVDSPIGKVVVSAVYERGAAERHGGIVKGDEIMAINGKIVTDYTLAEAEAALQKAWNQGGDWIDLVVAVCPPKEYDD

| Binder | pKd |
| --- | --- |
| B1 | below the threshold |
| B2 | below the threshold |
| B3 | below the threshold |
